Nine molecules from patent publication US20220380459A1 (DRAGONFLY THERAPEUTICS, published 2022) can be followed below.

Where two headings read alike, the source gives them in different places.

Usually Kd stands for the concentration at which binding is half-saturated. The koff is a measure of how fast the partners let go of each other. A lower koff goes with slow dissociation. Broadly, the kon is the rate constant with which the complex forms. A higher kon goes with faster complex formation.

For test [1], the target named is T1, human CD33 extracellular domain (human, UniProt P20138 18-259).
T1 construct: soluble monomeric ECD; also called human CD33 ECD; hCD33
The experiment in a line: SPR, Fab captured, 37C.
Procedure: (§1) Kinetics and affinity of a series of Fab fragments of anti-CD33 antibodies with different CD33 variants (human CD33 ECD, cyno CD33 ECD, V-domain of human CD33, C-domain or human CD33 and selected CD33 SNPs) were assessed by surface plasmon resonance using Biacore 8K instrument (GE Healthcare). Anti-Fab antibody was immobilized on a CMS chip using standard amine coupling chemistry. CD33 FABs were captured on the anti-Fab chip at a density of ˜100 RU. Solutions containing different concentrations of soluble monomeric CD33 or its domains were injected over the captured FABs and control surfaces at 30 μl/min at 37° C. Surfaces were regenerated between cycles by quick injection of 10 mM glycine, pH 1.8. To obtain kinetic rate constants double-referenced data were fit to a 1:1 interaction model using Biacore 8K Evaluation software (GE Healthcare). The equilibrium binding constant KD was determined by the ratio of binding rate constants kd/kₐ.
(§2) Affinity of 29 Fab fragments binding to human and cyno CD33 ECD were assayed by Biacore analysis.

Test [2] has as its target T2, cyno CD33 extracellular domain (Cynomolgus/Rhesus (cyno)).
T2 construct: soluble monomeric ECD; also called cyno CD33 ECD
The experiment in a line: SPR, Fab captured, 37C. A general note: In SPR one partner is held on a chip, and binding of the other changes the refractive index at the surface.
Procedure: as §1, §2

In test [3] the target is T3, C domain of human CD33 (human, UniProt P20138 140-259, limits assumed).
T3 construct: recombinant C domain
The experiment in a line: SPR, Fab captured, 37C.
Procedure: as §1
The binding interface between the Fab fragment of each CD33 antibody to CD33 was mapped.

The target of test [4] is T4, V domain of human CD33 (human, UniProt P20138 18-139, limits assumed).
T4 construct: recombinant, fully glycosylated V domain; also called Human CD33 V domain
The test is described as follows: SPR, Fab captured, 37C.
Procedure: as §1
(§3) The ability of anti-CD33 antibodies to recognize glycosylated CD33 was assayed. […] De-glycosylation status was confirmed by a shift on SDS-PAGE and MS.

Test [5] has as its target T5, deglycosylated V domain of human CD33 (human, UniProt P20138 18-139, limits assumed, N-glycans removed by PNGase).
T5 construct: V domain deglycosylated by PNGase before testing; also called deglycosylated V CD33
The test is described as follows: SPR, Fab captured, 37C.
Procedure: as §1, §3

The target of test [6] is T1, human CD33 extracellular domain. The test is described as follows: SPR, Fab captured, 37C. This is another data set of the same source.
Test [7] concerns the target T4, V domain of human CD33. The test is described as follows: SPR, Fab captured, 37C. The source holds these as a separate data set.
The target in test [8] is T1, human CD33 extracellular domain. The experiment in a line: SPR, Fab captured, 37C. This is another data set of the same source.
Test [9] has the same target. The test is described as follows: BLI Octet, IgG loaded.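 Further: IgGs captured on AHC biosensors, exposed to 100 nM antigen for 3 min association then 3 min dissociation in buffer, kinetics fitted with a 1:1 binding model.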 A general note: BLI is a label-free optical method that tracks binding on a fibre tip over time.
Procedure: Briefly, ForteBio affinity measurements were performed by loading IgGs on-line onto AHC sensors. Sensors were equilibrated off-line in assay buffer for 30 min and then monitored on-line for 60 seconds for baseline establishment. Sensors with loaded IgGs were exposed to 100 nM antigen for 3 minutes, and afterwards were transferred to assay buffer for 3 min for off-rate measurement. All kinetics were analyzed using the 1:1 binding model.

B1: ADI-11776 Fab (Fab, V domains shown)
VH: EVQLLESGGGLVQPGGSLRLSCAASGFTFSKYTMSWVRQAPGKGLEWVSAIVGSGESTYFADSVKGRFTISRDNSKNTLYLQMNSLRAEDTAVYYCAREGGPYYDSSGYFVYYGMDVWGQGTTVTVSS
VL: DIQMTQSPSTLSASVGDRVTITCRASQSISSWLAWYQQKPGKAPKLLIYKASSLESGVPSRFSGSGSGTEFTLTISSLQPDDFATYYCQQYDDLPTFGGGTKVEIK
notes: Fab fragment; also called Ab3; H76
On to B1, for which the Kd in test [1] turned out to be 0.78 nM; in test [2], 1.81 nM; in test [4] it was 0.33 nM; in test [5] it was 0.28 nM; in test [6], 0.78 nM; in test [7], 0.33 nM. This molecule gave a dissociation constant Kd in test [8] of 0.78 nM. Further, the koff in test [1] is 0.00124 s⁻¹; in test [2] it was 0.00472 s⁻¹; in [4] it was 0.00143 s⁻¹; in test [5], 0.00136 s⁻¹; in test [6], 0.00124 s⁻¹; in test [7], 0.00143 s⁻¹. In [8], the koff amounted to 0.00124 s⁻¹. In addition, the kon stood at 1.6e+06 M⁻¹ s⁻¹ in [1]; 2.62e+06 M⁻¹ s⁻¹ in test [2]; 4.52e+06 M⁻¹ s⁻¹ in [4]; 4.85e+06 M⁻¹ s⁻¹ in test [5]; 1.6e+06 M⁻¹ s⁻¹ in test [6]; 4.52e+06 M⁻¹ s⁻¹ in [7]. The kon in [8] was found to be 1.6e+06 M⁻¹ s⁻¹. The binding result in test [3] is recorded as “no binding”.

B2: ADI-11819 Fab (Fab, V domains shown)
VH: EVQLVESGGGLVKPGGSLRLSCAASGFTFSSYAMSWVRQAPGKGLEWVSSISSSSEGIYYADSVKGRFTISRDNAKNSLYLQMNSLRAEDTAVYYCAREGGPYYDSSGYFVYYGMDVWGQGTTVTVSS
VL: DIQMTQSPSTLSASVGDRVTITCRASNSISSWLAWYQQKPGKAPKLLIYEASSTKSGVPSRFSGSGSGTEFTLTISSLQPDDFATYYCQQYDDLPTFGGGTKVEIK
notes: Fab fragment; also called Ab8
On to B2, for which the Kd is 0.02 nM in [1]; 4.96 nM in test [2]; 0.14 nM in [4]; 0.11 nM in test [5]; 0.02 nM in [6]; 0.14 nM in [7]. For the same molecule, the Kd in [8] stood at 0.02 nM. Moreover, the koff in [1] was 5.65e-05 s⁻¹; in test [2], 0.019 s⁻¹; in test [4] it was 0.000916 s⁻¹; in [5], 0.00103 s⁻¹; in test [6] it was 5.65e-05 s⁻¹; in [7], 0.000916 s⁻¹. In test [8], this molecule came in with a koff of 5.65e-05 s⁻¹. The kon was 2.84e+06 M⁻¹ s⁻¹ in test [1]; 3.82e+06 M⁻¹ s⁻¹ in [2]; 6.75e+06 M⁻¹ s⁻¹ in [4]; 9.15e+06 M⁻¹ s⁻¹ in test [5]; 2.84e+06 M⁻¹ s⁻¹ in test [6]; 6.75e+06 M⁻¹ s⁻¹ in test [7]. The kon in test [8] is 2.84e+06 M⁻¹ s⁻¹. The binding result in test [3] was “no binding”.

B3: ADI-10165 Fab (Fab, V domains shown)
VH: EVQLVESGGGLVQPGGSLRLSCAASGFTFSSYWMSWVRQAPGKGLEWVANIKQDGSEKYYVDSVKGRFTISRDNAKNSLYLQMNSLRAEDTAVYYCARDVGPGIAYQGHFDYWGQGTLVTVSS
VL: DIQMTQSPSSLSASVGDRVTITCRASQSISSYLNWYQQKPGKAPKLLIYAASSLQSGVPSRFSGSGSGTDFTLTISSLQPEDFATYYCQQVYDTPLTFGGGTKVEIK
notes: Fab fragment; also called Ab19
Consider B3, for which the binding result in [2] is given as “no binding (tested: 100 nM)”. For the same molecule, the binding result in test [3] is recorded as “no binding”. In addition, in test [5], binding was put at a Kd of 156 nM, the koff came out at 0.203 s⁻¹ and the kon was found to be 1.3e+06 M⁻¹ s⁻¹.

B4: ADI-11807 Fab (Fab, V domains shown)
VH: EVQLVESGGGLVQPGGSLRLSCAASGFTFGSYWMSWVRQAPGKGLEWVATIKQDGSEKSYVDSVKGRFTISRDNAKNSLYLQMNSLRAEDTAVYYCARPLNAGELDVWGQGTMVTVSS
VL: DIQMTQSPSTLSASVGDRVTITCRASQSISSWLAWYQQKPGKAPKLLIYEASSLESGVPSRFSGSGSGTEFTLTISSLQPDDFATYYCQQSQSYPPITFGGGTKVEIK
notes: Fab fragment; also called Ab5; I07
For B4, the Kd in [1] amounted to 0.29 nM; in [2], 0.15 nM; in [4], 0.28 nM; in [5] it was 0.19 nM; in test [6] it was 0.29 nM; in test [7] it was 0.28 nM. In [8], the dissociation constant Kd is 0.29 nM. In addition, the koff in test [1] is 0.000332 s⁻¹; in test [2], 0.000151 s⁻¹; in test [4] it was 0.000847 s⁻¹; in [5], 0.000745 s⁻¹; in test [6], 0.000332 s⁻¹; in test [7], 0.000847 s⁻¹. The same molecule had a koff in [8] of 0.000332 s⁻¹. Further, the kon in [1] turned out to be 1.14e+06 M⁻¹ s⁻¹; in [2], 998000 M⁻¹ s⁻¹; in [4], 3.07e+06 M⁻¹ s⁻¹; in test [5], 3.9e+06 M⁻¹ s⁻¹; in [6], 1.14e+06 M⁻¹ s⁻¹; in [7] it was 3.07e+06 M⁻¹ s⁻¹. In addition, in [8], the on-rate constant (kon) amounted to 1.14e+06 M⁻¹ s⁻¹. Also, the binding result in [3] is “no binding”.

B5: ADI-11809 Fab (Fab, V domains shown)
VH: EVQLVESGGGLVQPGGSLRLSCAASGFTFPSYWMSWVRQAPGKGLEWVATIKRDGSEKGYVDSVKGRFTISRDNAKNSLYLQMNSLRAEDTAVYYCARPLNAGELDVWGQGTMVTVSS
VL: DIQMTQSPSTLSASVGDRVTITCRASQSISSWLAWYQQKPGKAPKLLIYEASSLESGVPSRFSGSGSGTEFTLTISSLQPDDFATYYCQQSQSYPPITFGGGTKVEIK
notes: Fab fragment; also called Ab6
On to B5, for which the Kd came out at 0.0012 nM in test [1]; 0.118 nM in test [2]; 0.3 nM in [4]; 0.21 nM in test [5]; 0.0012 nM in test [6]; 0.3 nM in test [7]. This molecule also came in with a Kd in test [8] of 0.0012 nM. The koff in test [1] was found to be 1.23e-06 s⁻¹; in test [2] it was 0.000126 s⁻¹; in test [4] it was 0.000769 s⁻¹; in test [5] it was 0.000711 s⁻¹; in [6], 1.23e-06 s⁻¹; in test [7], 0.000769 s⁻¹. This molecule returned a koff in test [8] of 1.23e-06 s⁻¹. The kon in test [1] was 1.02e+06 M⁻¹ s⁻¹; in [2], 1.06e+06 M⁻¹ s⁻¹; in [4], 2.6e+06 M⁻¹ s⁻¹; in test [5], 3.4e+06 M⁻¹ s⁻¹; in [6] it was 1.02e+06 M⁻¹ s⁻¹; in test [7], 2.6e+06 M⁻¹ s⁻¹. Further, the kon in test [8] was found to be 1.02e+06 M⁻¹ s⁻¹. Moreover, in test [3], the binding result is “no binding”.

B6: ADI-10158 Fab (Fab, V domains shown)
VH: QVQLQQWGAGLLKPSETLSLTCAVYGGSFSGYYWSWIRQPPGKGLEWIGEIDHSGSTNYNPSLKSRVTISVDTSKNQFSLKLSSVTAADTAVYYCARQGIHGLRYFDLWGRGTLVTVSS
VL: EIVMTQSPATLSLSPGERATLSCRASQSVSSYLAWYQQKPGQAPRLLIYDASNRATGIPARFSGSGSGTDFTLTISSLEPEDFAVYYCQQDHNFPYTFGGGTKVEIK
notes: Fab fragment; also called Ab14
Regarding B6, the results for the binding result in test [2] and in [3] were “no binding (tested: 100 nM)” and “no binding”, respectively. Also, the Kd in test [4] came to 127 nM; in test [5], 88.1 nM; in test [7], 127 nM. The results for the koff in test [4], in test [5] and in [7] were 0.133 s⁻¹, 0.231 s⁻¹ and 0.133 s⁻¹, respectively. The values for the kon in test [4], in test [5] and in test [7] were 1.04e+06 M⁻¹ s⁻¹, 2.63e+06 M⁻¹ s⁻¹ and 1.04e+06 M⁻¹ s⁻¹, respectively.

B7: ADI-10168 Fab (Fab, V domains shown)
VH: QVQLVQSGAEVKKPGSSVKVSCKASGGTFSSYAISWVRQAPGQGLEWMGSIIPIFGTANYAQKFQGRVTITADESTSTAYMELSSLRSEDTAVYYCAREVGYGWYTKIAFDIWGQGTMVTVSS
VL: EIVLTQSPATLSLSPGERATLSCRASQSVSSYLAWYQQKPGQAPRLLIYDASKRATGIPARFSGSGSGTDFTLTISSLEPEDFAVYYCQQSSNHPSTFGGGTKVEIK
notes: Fab fragment; also called Ab21
With B7, the binding result in test [2] is on record as “no binding (tested: 100 nM)”; in test [3] it was “no binding”; in test [5], “no binding”; in [7], “no binding”.

B8: Fab fragment from Lintuzumab (Fab, V domains shown)
VH: QVQLVQSGAEVKKPGSSVKVSCKASGYTFTDYNMHWVRQAPGQGLEWIGYIYPYNGGTGYNQKFKSKATITADESTNTAYMELSSLRSEDTAVYYCARGRPAMDYWGQGTLVTVSS
VL: DIQMTQSPSSLSASVGDRVTITCRASESVDNYGISFMNWFQQKPGKAPKLLIYAASNQGSGVPSRFSGSGSGTDFTLTISSLQPDDFATYYCQQSKEVPWTFGQGTKVEIK
notes: Fab fragment
In the case of B8, in test [1], the Kd is 16.7 nM, the off-rate (koff) was 0.0122 s⁻¹ and the kon was 735000 M⁻¹ s⁻¹. Further, the binding result in test [2] was “no binding (tested: 100 nM)”.

B9: Lintuzumab (antibody, V domains shown)
VH: QVQLVQSGAEVKKPGSSVKVSCKASGYTFTDYNMHWVRQAPGQGLEWIGYIYPYNGGTGYNQKFKSKATITADESTNTAYMELSSLRSEDTAVYYCARGRPAMDYWGQGTLVTVSS
VL: DIQMTQSPSSLSASVGDRVTITCRASESVDNYGISFMNWFQQKPGKAPKLLIYAASNQGSGVPSRFSGSGSGTDFTLTISSLQPDDFATYYCQQSKEVPWTFGQGTKVEIK
notes: IgG; also called lintuzumab IgG
With B9, in test [9], the Kd was 2.21 nM, the koff worked out at 0.000952 s⁻¹ and the kon was 431000 M⁻¹ s⁻¹.
